In US20230265151A1, “GIP/GLP1 CO-AGONIST COMPOUNDS” (priority 2020, published 2023):

Legend:
Test in all cases: cell-based or functional assay
human GIP receptor = molecular target: T1, human GIP receptor (human, UniProt P48546 22-466)
T1 sequence (looked up): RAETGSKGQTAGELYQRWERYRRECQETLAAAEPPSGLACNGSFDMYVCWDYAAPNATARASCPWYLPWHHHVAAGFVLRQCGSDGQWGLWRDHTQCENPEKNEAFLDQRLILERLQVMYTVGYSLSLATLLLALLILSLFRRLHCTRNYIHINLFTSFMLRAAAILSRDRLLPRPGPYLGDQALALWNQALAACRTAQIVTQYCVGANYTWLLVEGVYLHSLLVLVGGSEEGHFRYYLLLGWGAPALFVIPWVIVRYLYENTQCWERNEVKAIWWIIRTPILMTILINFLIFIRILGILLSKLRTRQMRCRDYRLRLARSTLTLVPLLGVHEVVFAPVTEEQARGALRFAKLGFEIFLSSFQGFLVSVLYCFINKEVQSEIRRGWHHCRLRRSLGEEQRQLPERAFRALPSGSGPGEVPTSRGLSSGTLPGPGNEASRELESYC

human GLP-1 receptor = human GLP-1 receptor (human, UniProt P43220 24-463)
human glucagon receptor = human glucagon receptor (human, UniProt P47871 26-477)

| Binder | cAMP EC50 (1.0% HSA) (human GIP receptor) [nM] | cAMP Emax (1.0% HSA) (human GIP receptor) [%] | cAMP EC50 (1.0% HSA) (human GLP-1 receptor) [nM] | cAMP Emax (1.0% HSA) (human GLP-1 receptor) [%] | cAMP EC50 (1.0% HSA) (human glucagon receptor) [nM] |
| --- | --- | --- | --- | --- | --- |
| YXEGTXTSDXXIXLDXIAQXKFIKXLIEGGPSSGAPPPS (Y-Aib-EGT-αMeF(2F)-TSD-4Pal-Aib-I-αMeL-LD-Orn-IAQ-Aib-K((2-[2-(2-Amino-ethoxy)-ethoxy]-acetyl)2-(γ-Glu)-CO-(CH2)12-CO2H)FIK((2-[2-(2-Amino-ethoxy)-ethoxy]-acetyl)2-(γ-Glu)-CO-(CH2)12-CO2H)-αMeY-LIEGGPSSGAPPPS-NH2) [Example 218] | 3.27 | 95.9 | 36.6 | 121 | > 9950 |
| YXEGTXTSDXXIXLDXIAQXEFIKXLIKGGPSSGAPPPS (Y-Aib-EGT-αMeF(2F)-TSD-4Pal-Aib-I-αMeL-LD-Orn-IAQ-Aib-EFIK((2-[2-(2-Amino-ethoxy)-ethoxy]-acetyl)2-(γ-Glu)-CO-(CH2)12-CO2H)-αMeY-LIK((2-[2-(2-Amino-ethoxy)-ethoxy]-acetyl)2-(γ-Glu)-CO-(CH2)12-CO2H)GGPSSGAPPPS-NH2) [Example 219] | 2.86 | – | 25.9 | – | > 9950 |
| YXEGTXTSDXSIXLDXKAQXEFIXXLIEGGPSSGAPPPSK (Y-Aib-EGT-αMeF(2F)-TSD-4Pal-SI-αMeL-LD-Orn-K((2-[2-(2-Amino-ethoxy)-ethoxy]-acetyl)2-CO-(CH2)12-CO2H)AQ-Aib-EFI-(D-Glu)-αMeY-LIEGGPSSGAPPPSK((2-[2-(2-Amino-ethoxy)-ethoxy]-acetyl)2-CO-(CH2)12-CO2H)-NH2) [Example 221] | 0.838 | 67.4 | 17.9 | – | > 9950 |
| YXEGTXTSDXSIXLDXIAQXKFIXXLIKGGPSSGAPPPS (Y-Aib-EGT-αMeF(2F)-TSD-4Pal-SI-αMeL-LD-Orn-IAQ-Aib-K((2-[2-(2-Amino-ethoxy)-ethoxy]-acetyl)2-CO-(CH2)12-CO2H)Fl-(D-Glu)-αMeY-LIK((2-[2-(2-Amino-ethoxy)-ethoxy]-acetyl)2-CO-(CH2)12-CO2H)GGPSSGAPPPS-NH2 …) [Example 222] | 2.1 | – | 13.8 | 117 | > 9950 |
| YXEGTXTSDXSIXLDXKAQXEFIXXLIKGGPSSGAPPPS (Y-Aib-EGT-αMeF(2F)-TSD-4Pal-SI-αMeL-LD-Orn-K((2-[2-(2-Amino-ethoxy)-ethoxy]-acetyl)3-(γ-Glu)-CO-(CH2)12-CO2H)AQ-Aib-EFI-(D-Glu)-αMeY-LIK((2-[2-(2-Amino-ethoxy)-ethoxy]-acetyl)3-(γ-Glu)-CO-(CH2)12-CO2H)GGPSSGAPPPS-NH2) [Example 224] | 2.92 | – | 71 | – | > 9950 |
| YXEGTXTSDXSIXLDXKAQXEFIXXLIEGGPSSGAPPPSK (Y-Aib-EGT-αMeF(2F)-TSD-4Pal-SI-αMeL-LD-Orn-K((2-[2-(2-Amino-ethoxy)-ethoxy]-acetyl)3-(γ-Glu)-CO-(CH2)12-CO2H)AQ-Aib-EFI-(D-Glu)-αMeY-LIEGGPSSGAPPPSK((2-[2-(2-Amino-ethoxy)-ethoxy]-acetyl)3-(γ-Glu)-CO-(CH2)12-CO2H)-NH2) [Example 225] | 1.81 | 67.5 | 51.6 | – | > 9950 |
| YXEGTXTSDXSIXLDXIAQXEFIKXLIKGGPSSGAPPPS (Y-Aib-EGT-αMeF(2F)-TSD-4Pal-SI-αMeL-LD-Orn-IAQ-Aib-EFIK((2-[2-(2-Amino-ethoxy)-ethoxy]-acetyl)3-(γ-Glu)-CO-(CH2)12-CO2H)-αMeY-LIK((2-[2-(2-Amino-ethoxy)-ethoxy]-acetyl)3-(γ-Glu)-CO-(CH2)12-CO2H)GGPSSGAPPPS-NH2) [Example 226] | 4.86 | – | 11.3 | – | > 9950 |
| YXEGTXTSDXSIXLDXIAQXKFIXXLIKGGPSSGAPPPS (Y-Aib-EGT-αMeF(2F)-TSD-4Pal-SI-αMeL-LD-Orn-IAQ-Aib-K((2-[2-(2-Amino-ethoxy)-ethoxy]-acetyl)3-(γ-Glu)-CO-(CH2)12-CO2H)FI-(D-Glu)-αMeY-LIK((2-[2-(2-Amino-ethoxy)-ethoxy]-acetyl)3-(γ-Glu)-CO-(CH2)12-CO2H)GGPSSGAPPPS-NH2) [Example 227] | 1.59 | – | 41.8 | – | > 9950 |
| YXEGTXTSDXSIXLDXIAQXKFIXXLIEGGPSSGAPPPSK (Y-Aib-EGT-αMeF(2F)-TSD-4Pal-SI-αMeL-LD-Orn-IAQ-Aib-K((2-[2-(2-Amino-ethoxy)-ethoxy]-acetyl)3-(γ-Glu)-CO-(CH2)12-CO2H)FI-(D-Glu)-αMeY-LIEGGPSSGAPPPSK((2-[2-(2-Amino-ethoxy)-ethoxy]-acetyl)3-(γ-Glu)-CO-(CH2)12-CO2H)-NH2) [Example 228] | 3.37 | 83.3 | 42 | 119 | > 9950 |
